Assay [1] concerns the target TCR1 with the T30Q mutation in CDR-1A (human | mouse).
For assay [2] the target is unchanged. The assay is described as follows: flow cytometry on cells. A general note: A flow cytometer gives signals particle by particle.

This note sets out measurements from paper PMC11740425.

On to “KRAS^G12D peptide presented by HLA-A*11:01 (KRAS^G12D tetramer) (from UniProt P61769 21-119; P01116 7-16) (peptide-MHC)”, for which the EC50 (functional avidity) of TCR Jurkat cells for KRAS^G12D peptide in assay [1] turned out to be 53 nM. The substance further came in with a pMut-HLA binding positivity rate in assay [2] of 60%.
